Measured values: patent US20210253716A1 (Regeneron, published 2021)
Residue numbers refer to the chain shown, from its start.

T1: full length human ACVR1 (R206H) on HEK293/BRE-luc/hACVR1-R206H-clone H2 cells (human, UniProt Q04771 21-509)
T1 construct: also called HEK293/hACVR1-R206H
T1 sequence: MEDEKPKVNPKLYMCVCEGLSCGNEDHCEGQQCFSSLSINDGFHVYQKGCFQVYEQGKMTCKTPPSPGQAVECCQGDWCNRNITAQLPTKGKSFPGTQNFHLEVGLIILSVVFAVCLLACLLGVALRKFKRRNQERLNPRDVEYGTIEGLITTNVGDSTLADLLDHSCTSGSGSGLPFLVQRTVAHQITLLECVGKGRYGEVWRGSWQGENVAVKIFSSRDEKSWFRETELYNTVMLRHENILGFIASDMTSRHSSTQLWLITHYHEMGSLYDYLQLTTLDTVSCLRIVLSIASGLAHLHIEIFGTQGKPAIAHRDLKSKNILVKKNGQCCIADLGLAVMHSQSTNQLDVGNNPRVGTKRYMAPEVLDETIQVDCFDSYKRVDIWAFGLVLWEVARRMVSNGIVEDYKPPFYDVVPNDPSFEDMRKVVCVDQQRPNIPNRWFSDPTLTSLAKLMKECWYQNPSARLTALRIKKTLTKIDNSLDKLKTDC

T2: mouse ACVR1 extracellular domain expressed with a C-terminal myc-myc-hexahistidine tag (mouse)
T2 construct: also called mACVR1-MMH; mACVR1-mmh
T2 chain: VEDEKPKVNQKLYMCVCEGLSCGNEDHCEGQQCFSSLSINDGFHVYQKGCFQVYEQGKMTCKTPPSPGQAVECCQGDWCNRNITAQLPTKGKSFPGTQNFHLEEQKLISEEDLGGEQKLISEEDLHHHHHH

T3: human ACVR1 extracellular domain expressed with a C-terminal mouse IgG2a Fc tag (human)
T3 construct: also called hACVR1-mFc
T3 chain: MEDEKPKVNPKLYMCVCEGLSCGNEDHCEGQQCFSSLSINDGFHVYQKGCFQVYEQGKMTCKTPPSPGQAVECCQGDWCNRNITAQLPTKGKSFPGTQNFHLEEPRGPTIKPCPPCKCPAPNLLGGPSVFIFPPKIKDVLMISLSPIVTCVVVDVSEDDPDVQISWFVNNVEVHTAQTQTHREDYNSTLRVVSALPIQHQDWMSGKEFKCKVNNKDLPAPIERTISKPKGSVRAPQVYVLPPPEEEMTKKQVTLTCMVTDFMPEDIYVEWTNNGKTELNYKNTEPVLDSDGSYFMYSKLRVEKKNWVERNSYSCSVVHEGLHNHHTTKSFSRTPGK

T4: human ACVR1 extracellular domain expressed with a C-terminal myc-myc-hexahistidine tag (human)
T4 construct: also called hACVR1-MMH
T4 chain: T2 chain with V1M, Q10P

T5: full length wild type human ACVR1 on HEK293/BRE-luc/hACVR1-wild type cells (human, UniProt Q04771 21-509)
T5 construct: also called HEK293/hACVR1-wt; hACVR1-wt
T5 sequence: T1 sequence with H186R

B1: mAb22115 (antibody, human IgG4 S228P, kappa, V domains shown)
VH: EVQLVESGGGLVQPGGSLRLSCAASGFTSSRYWMSWVRQAPGKGLEWLANINQDGSEKYYLESLRGRFTISRDNAKNSLYLQMNNLRAEDTAVYYCARDEEGYWGQGTLVTVSS
VL: DVVMTQSLLSLSVTLGQPASISCRSSQSLVYSDGDTYLSWFQQRPGQSPRRLIYKVSHRDSGVPDRFRGSGSGTDFTLKISRVEAEDVGIYYCMQGTHWPPTFGQGTKVEIKR
B2: mAb22125 (antibody, human IgG4 S228P, kappa, V domains shown)
VH: QVQLVQSGAEVKKPGASVKVSCKASGYTFTGYYMHWVRQAPGQGLEWMGWINPNSVGTNFAQKFQGRVTMTRDTSISTAYMELSRLRSDDTAVYYCTRDGAAAGLFDYWGQGTLVTVSS
VL: DIQMTQSPSSLSASVGDRVTITCRASQGINNYLAWYQQKPGKVPKLLIYAASTLQSGVPSRFSGSGSGTDFTLTISSLQPEDVATYYCQKFNSAPLTFGGGTKVEIKR

What was measured:
[1] = target: T1, full length human ACVR1 (R206H) on …; experiment: flow cytometry, 66.6 nM antibody, HEK293/hACVR1-R206H cells
Protocol: (§1) Cells were fixed using BD CytoFix™ (Becton Dickinson, #554655) and analyzed on either Hypercyt® or IQue® Flow Cytometers (Intellicyt®). Unstained and secondary antibody alone controls were also tested for all cell lines. The results were analyzed using ForeCyt® (IntelliCyt®) software to determine the geometric means of fluorescence for viable cells and binding ratios were calculated by normalizing the geometric mean value of the test condition by the geometric mean value of the corresponding unstained cells.

[2] = target: T2, mouse ACVR1 extracellular domain …; experiment: SPR (Biacore), mAb captured, 25 C
Procedure, shortened: (§2)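 HBS-ET running buffer (10 mM HEPES, 150 mM NaCl, 3 mM EDTA, 0.05% Tween-20, pH 7.4). 1:1 fit gives ka, kd; KD, t½ derived.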

[3] = target: T3, human ACVR1 extracellular domain …; experiment: SPR (Biacore), mAb captured, 25 C
Procedure, shortened: as §2

[4] = target: T4, human ACVR1 extracellular domain …; experiment: SPR (Biacore), mAb captured, 25 C
Procedure, shortened: as §2

[5] = target: T2, mouse ACVR1 extracellular domain …; experiment: SPR (Biacore), mAb captured, 37 C
Procedure, shortened: (§3)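 First, a CM5 chip is derivatized with mouse anti-human Fc antibody to capture the test mAbs. Next, ACVR1 reagents are injected at 30 μL/minute for 2.5-3 minutes, then dissociation is followed 10-15 minutes in pH 7.4 HBS-ET. Finally, 1:1 fitting yields ka and kd.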

[6] = target: T3, human ACVR1 extracellular domain …; experiment: SPR (Biacore), mAb captured, 37 C
Procedure, shortened: as §3

[7] = target: T4, human ACVR1 extracellular domain …; experiment: SPR (Biacore), mAb captured, 37 C
Procedure, shortened: as §2

[8] = target: T5, full length wild type human ACVR1 on …; experiment: flow cytometry, 66.6 nM antibody, HEK293/hACVR1-wt cells
Protocol: as §1

[9] = target: T1, full length human ACVR1 (R206H) on …; experiment: cell-based or functional assay

Row | Binder | MFI - Normalized to Unstained Control [1] [fold] | 900 nM or 100 nM Ag Bound (RU) [2] [RU] | Kd [2] [nM] | koff [2] [s⁻¹] | kon [2] [M⁻¹ s⁻¹] | t½ [2] [s] | 100 nM Ag Bound (RU) [3] [RU] | Kd [3] [nM] | koff [3] [s⁻¹] | kon [3] [M⁻¹ s⁻¹] | t½ [3] [s] | 900 nM or 100 nM Ag Bound (RU) [4] [RU] | Kd [4] [nM] | koff [4] [s⁻¹] | kon [4] [M⁻¹ s⁻¹] | t½ [4] [s] | 900 nM or 100 nM Ag Bound (RU) [5] [RU] | 100 nM Ag Bound (RU) [6] [RU] | Kd [6] [nM] | koff [6] [s⁻¹] | also measured
1 | B1 | 4 | 94 | 171 | 0.00478 | 28000 | 144 | 264 | 11.4 | 0.000765 | 66900 | 900 | 93 | 145 | 0.00485 | 33400 | 144 | 85 | 317 | 30.1 | 0.0025 | Kd [5]: 504 nM; koff [5]: 0.0297 s⁻¹; kon [5]: 58900 M⁻¹ s⁻¹; t½ [5]: 23.4 s; kon [6]: 83300 M⁻¹ s⁻¹; t½ [6]: 276 s; 900 nM or 100 nM Ag Bound (RU) [7]: 86 RU; Kd [7]: 438 nM; koff [7]: 0.0308 s⁻¹; kon [7]: 70400 M⁻¹ s⁻¹; t½ [7]: 22.2 s; MFI - Normalized to Unstained Control [8]: 4 fold
2 | B2 | 235 | 41 | 836 | 0.575 | 688000 | 1.2 | 268 | 12.3 | 0.00802 | 652000 | 84 | 44 | 1020 | 0.42 | 413000 | 1.8 | 23 | 243 | 79.2 | 0.0577 | IC50 [M], BRE-luc reporter, 3 nM hActivin A [9]: 1.9e-08 M; IC50 [M], BRE-luc reporter, 3 nM hBMP7 [9]: 1.6e-08 M; kon [6]: 729000 M⁻¹ s⁻¹; t½ [6]: 12 s; 900 nM or 100 nM Ag Bound (RU) [7]: 25 RU; MFI - Normalized to Unstained Control [8]: 183 fold
